Results on 2 molecules are retold here after patent publication US8697369B2, “Method for screening a test substance for activating a receptor associated with FGF 21 activity” (National Institute of Advanced Industrial Science and …, priority 2007, dated 2014).

Type in all cases: cell-based
For test [1], the target named is T1, humanized FGFR3c (hR3c)-expressing BaF3 cells (Homo sapiens, UniProt P22607, A441S/A461E/A470D/A499P/A500N/A559S/A717S/A734V/A765M/C582S/D512S/D516E/D576E/D580N/D722E/D758Q/D785E/DEL405-414/E426D/E447G/E729D/E768D/F566Y/F579Y/F591S/F767L/G446S/G448T/G548D/G773S/G774F/H721N/I440P/I494L/I698V/I726M/INS417HSQMAVHKLAKSI/INS423TV/INS780T/K420R/K464R/K501R/K583H/L398M/L425A/L457Y/L554I/L645I/L752V/M488L/N428S/N434G/N453G/N644H/P401G/P402T/P436L/P502V/P584N/P778R/Q611K/Q775P/R397K/R399K/R416D/R498K/R568Q/S432N/S468P/S578C/S781C/T435V/T450M/T473V/T504K/T581P/T590S/T753A/T757N/V503T/V523I/V642I/V670I/V751I/V754L).
T1 construct: expressed in transfected cells; host or cells: BaF3 (mouse pro-B) cells; pSRalpha vector
T1 sequence (P22607 other isoform, or with tags, fused parts or gaps with the stated changes): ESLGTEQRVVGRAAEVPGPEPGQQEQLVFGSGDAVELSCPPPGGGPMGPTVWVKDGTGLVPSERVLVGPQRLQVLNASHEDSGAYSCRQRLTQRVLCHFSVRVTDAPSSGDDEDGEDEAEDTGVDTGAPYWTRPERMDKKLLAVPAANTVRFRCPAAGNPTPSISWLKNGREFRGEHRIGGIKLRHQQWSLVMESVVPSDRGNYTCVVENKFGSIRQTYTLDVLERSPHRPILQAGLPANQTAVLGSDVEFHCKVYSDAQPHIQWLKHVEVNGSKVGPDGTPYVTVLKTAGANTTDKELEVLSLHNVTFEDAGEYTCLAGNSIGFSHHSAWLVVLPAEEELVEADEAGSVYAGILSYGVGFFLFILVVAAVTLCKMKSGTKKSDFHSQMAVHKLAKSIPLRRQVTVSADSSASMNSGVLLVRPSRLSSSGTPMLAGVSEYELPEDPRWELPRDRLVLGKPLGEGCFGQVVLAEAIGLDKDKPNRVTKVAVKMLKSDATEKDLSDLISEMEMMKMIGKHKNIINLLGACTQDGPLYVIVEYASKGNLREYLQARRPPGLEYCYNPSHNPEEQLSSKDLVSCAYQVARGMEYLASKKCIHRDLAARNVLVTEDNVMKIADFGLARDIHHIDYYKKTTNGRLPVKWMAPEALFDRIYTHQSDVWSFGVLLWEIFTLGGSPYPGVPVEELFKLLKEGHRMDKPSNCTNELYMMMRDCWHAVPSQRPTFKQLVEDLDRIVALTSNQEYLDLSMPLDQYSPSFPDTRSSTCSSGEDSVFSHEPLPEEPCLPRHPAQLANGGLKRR
The test can be described thus: DNA synthesis in humanized FGFR3c-expressing BaF3 cells. The following applies: humanized FGFR3c only; 10 μg/ml heparin. Here is the method: The homology between human FGFR3 and mouse FGFR3 at the amino acid sequence level is 93%. […] The cDNA of humanized FGFR3c was prepared from a commercially available human RNA sample (Takara Bio Inc.) by PCR. The sequence of its intracellular portion was substituted with the sequence of humanized FGFR1, and it was then introduced into an expression vector having an SRalpha promoter (pSRalpha). The FGFR3c expression vector was introduced into BaF3 cells by an electroporation method, so as to obtain FGFR3c-expressing BaF3 cells as G418-resistant clones. In the case of FGFR3c/betaKlotho-co-expressing cells, a betaKlotho expression vector was introduced into the FGFR3c-expressing BaF3 cells, so as to obtain the aforementioned cells as Puromycin-resistant clones. In the presence of heparin, humanized FGF21 was added in various types of concentrations to FGFR3c-expressing cells or FGFR3c/betaKlotho-co-expressing cells, and the amount of DNA synthesized was then measured.

Test [2] concerns the target T2, humanized FGFR1c/humanized betaKlotho (hβKlotho)-expressing cells (Homo sapiens, UniProt P11362+Q86Z14).
T2 construct: expressed in transfected cells; host or cells: BaF3 (mouse pro-B) cells; pSRalpha (FGFR1c), pcDNA3.1 (betaKlotho)
The test can be described thus: DNA synthesis in humanized FGFR1c/humanized betaKlotho-expressing BaF3 cells. The following applies: humanized FGFR1c and humanized betaKlotho; 10 μg/ml heparin. The text has this:
In Examples 4, 5, 6, and 7, it was shown that FGF21 reacts with FGFR1c in the presence of betaKlotho. FGFR1c, betaKlotho, FGF21, and the like, which were used in an actual experimental system, were all derived from mice used as typical mammalian models. With regard to these molecules, the homology between a human and a mouse at the amino acid sequence level is extremely high (80% in FGF21, 78% in betaKlotho, and 98% in FGFR1). As a result, naturally, there are no problems regarding the compatibility of the human with the mouse, and thus it is clear that the same results as those from a murine molecule will be obtained even using a humanized molecule. In the present example, as a precautionary measure, an experimental system using a humanized molecule was constructed to confirm such respect, and an experiment was carried out. Specifically, the humanized cDNA of FGFR1c and that of betaKlotho were prepared from a commercially available human RNA sample (Takara Bio Inc.) by PCR. FGFR1c was introduced into an expression vector having an SRalpha promoter (pSRalpha), and betaKlotho was introduced into an expression vector having a CMV promoter (pcDNA3.1; Invitrogen). […] In the presence of heparin, humanized FGF21 was added in various types of concentrations to FGFR1c-expressing cells or FGFR1c/betaKlotho-co-expressing cells, and the amount of DNA synthesized was then measured.

Test [3] deals with undifferentiated 3T3-L1 cells that had not expressed betaKlotho. The test can be described thus: Phosphorylation of FRS2 and MAPK in undifferentiated 3T3-L1 cells not expressing betaKlotho. The conditions noted are these: 10 minutes. Here is the method:
A betaKlotho expression vector produced by the method described in Example 4 and an empty vector used as a control, into which betaKlotho cDNA had not been inserted, were introduced into 3T3-L1 fibroblasts cultured as described in Example 1 by a lipofection method, thereby obtaining Puromycin-resistant clones. These different types of cells were stimulated with FGF21, and 10 minutes after the stimulation, a cell lysate was prepared. The activation of FRS2 and MAPK that were signaling molecules located downstream of FGFR was examined by a Western blotting method.

T2 sequence (P11362 22-822): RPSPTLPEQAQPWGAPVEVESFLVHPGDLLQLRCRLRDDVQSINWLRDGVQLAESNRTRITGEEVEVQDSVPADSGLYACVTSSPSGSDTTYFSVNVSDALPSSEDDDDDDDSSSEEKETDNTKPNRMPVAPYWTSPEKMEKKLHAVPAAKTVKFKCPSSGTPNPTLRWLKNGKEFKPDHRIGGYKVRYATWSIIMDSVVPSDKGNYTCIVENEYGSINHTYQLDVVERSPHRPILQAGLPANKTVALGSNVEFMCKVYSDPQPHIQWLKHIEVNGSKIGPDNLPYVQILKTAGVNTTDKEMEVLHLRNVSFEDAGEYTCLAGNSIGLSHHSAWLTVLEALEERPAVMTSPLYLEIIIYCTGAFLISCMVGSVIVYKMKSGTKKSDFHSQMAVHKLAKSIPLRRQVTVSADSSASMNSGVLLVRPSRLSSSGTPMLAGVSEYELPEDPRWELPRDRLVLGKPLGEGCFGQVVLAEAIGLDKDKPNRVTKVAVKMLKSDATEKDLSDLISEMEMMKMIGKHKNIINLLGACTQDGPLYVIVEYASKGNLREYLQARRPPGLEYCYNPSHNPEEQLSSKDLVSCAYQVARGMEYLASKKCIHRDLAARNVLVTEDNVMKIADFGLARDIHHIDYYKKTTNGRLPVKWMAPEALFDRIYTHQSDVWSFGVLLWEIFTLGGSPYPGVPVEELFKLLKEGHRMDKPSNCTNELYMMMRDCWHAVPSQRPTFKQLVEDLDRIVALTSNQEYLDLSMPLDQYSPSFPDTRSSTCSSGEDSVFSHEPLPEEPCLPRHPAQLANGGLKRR
T2 sequence (Q86Z14 whole entry): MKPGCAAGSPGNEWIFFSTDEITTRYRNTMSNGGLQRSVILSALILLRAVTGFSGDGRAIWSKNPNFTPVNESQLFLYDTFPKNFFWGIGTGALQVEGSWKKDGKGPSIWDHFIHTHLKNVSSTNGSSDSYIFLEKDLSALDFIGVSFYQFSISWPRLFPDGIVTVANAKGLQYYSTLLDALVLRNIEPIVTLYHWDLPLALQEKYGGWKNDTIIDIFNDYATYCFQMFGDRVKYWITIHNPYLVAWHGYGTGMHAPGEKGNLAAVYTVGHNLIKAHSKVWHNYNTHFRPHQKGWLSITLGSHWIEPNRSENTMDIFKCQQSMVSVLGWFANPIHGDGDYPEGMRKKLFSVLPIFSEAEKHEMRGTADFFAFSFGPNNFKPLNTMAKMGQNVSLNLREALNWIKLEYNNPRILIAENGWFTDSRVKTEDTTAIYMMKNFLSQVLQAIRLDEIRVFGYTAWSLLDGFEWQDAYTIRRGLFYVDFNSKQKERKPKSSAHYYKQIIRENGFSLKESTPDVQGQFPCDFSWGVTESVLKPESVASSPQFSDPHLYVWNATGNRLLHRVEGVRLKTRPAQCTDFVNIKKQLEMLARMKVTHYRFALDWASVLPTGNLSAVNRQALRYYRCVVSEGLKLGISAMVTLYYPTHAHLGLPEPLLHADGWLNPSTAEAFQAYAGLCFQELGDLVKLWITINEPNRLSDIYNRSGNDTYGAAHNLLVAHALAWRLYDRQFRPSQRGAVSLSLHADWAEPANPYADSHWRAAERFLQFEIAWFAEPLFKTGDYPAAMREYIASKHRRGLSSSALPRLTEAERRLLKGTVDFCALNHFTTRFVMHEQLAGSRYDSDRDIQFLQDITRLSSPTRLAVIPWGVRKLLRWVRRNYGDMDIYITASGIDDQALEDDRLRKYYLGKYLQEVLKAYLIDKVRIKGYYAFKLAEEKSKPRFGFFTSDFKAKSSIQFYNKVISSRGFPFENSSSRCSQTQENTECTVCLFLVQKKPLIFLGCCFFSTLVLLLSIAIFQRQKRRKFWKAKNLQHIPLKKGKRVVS

Regarding “FGF1: conventional FGF used as a control”, the “amount of DNA synthesized (thymidine incorporation)” value in test [1] and in test [2] was “promoted the DNA synthesis” throughout.

B1: FGF21: fibroblast growth factor 21; mouse-derived protein used in Examples 1-7 and 10-13 (protein)
chain: AYPIPDSSPLLQFGGQVRQRYLYTDDDQDTEAHLEIREDGTVVGAAHRSPESLLELKALKPGVIQILGVKASRFLCQQPDGALYGSPHFDPEACSFRELLLEDGYNVYQSEAHGLPLRLPQKDSPNQDATSWGPVRFLPMPGLLHEPQDQAGFLPPEPPDVGSSDPLSMVEPLQGRSPSYAS
B1: the “phosphorylated state of FRS2 and MAPK” value in test [3] is reported as “do not change”.
